Experiment: soluble fraction after stress (log2 fold change); higher = more stays soluble; pooled small domains, quantitative proteomics
Settings: stress: 75 degC
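Also: 20 min heating vs room temperature control held 20 min.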

HMIRVVSIEDQPWFVAADVLKSLGMPTDKGVGKYLLALGSDERMLTTHGQIGGKGMAVTTIISESGLY
soluble fraction (log2): -0.67

HMISDAEWKIMNVLWEEQPRTMMQITKELQEETGWTKHTVMTYLKRMESKKIIHYVEGEKAKLYYS
soluble fraction (log2): -0.133

HMISDDLYQAVLDFTLTQDTISISRLQQNFNLGWPRARQLYDQLMQNGIIEPPDEANSAKGAVVIANKRG
soluble fraction (log2): 0.697

HMISIKEAVFPFSRFPGVDTLLGPEMKSTGEVMGLADNFGHAYAKSQIASGSKLPESGTLFVSVKNSD
soluble fraction (log2): -0.467

HMISKRFQIDEENAHKRIDIFLSHEFDSISRGIVQELIVKGEVLVNDKVTKRNYKLKTGDLVDITINL
soluble fraction (log2): -2.98

HMITDQQKEQLSSLLKQAEAALAKAAANDQVLAAHKDEAVELLKSTSATSADAADLINELTELLKPYQ
soluble fraction (log2): 0.973

HMITEDQVIARIGLLSPAEKSLLKDKLERFRRLTLSEQQHLREFHSALDNHDKRTDLLNVLRKYNDWVNQL
soluble fraction (log2): -1.99

HMITEQEFQRVAAYVKNKAGINLNEKKVLVQGRLDSYMQRKGYSSYDEFMDRVERFPTGPEAEDLMNALTT
soluble fraction (log2): -0.0412

HMITFRINQQSQVGLRLDKFIVQQMPDYSRTRIQSWIKTKNILVNGEGKKSGYALEFDDLVEVTIPE
soluble fraction (log2): -4.81

HMITGREMDVLEALWSSEKPLVASDIPKMKPSLSISSVQLALRNLVKKKLVEVADIVYSGTVLSRSYRP
soluble fraction (log2): 0.0724

HMITIDNYFNKEKELDFSSFPEALRKGHGFVSKATAHGSSWVSYHSSDAIKKTIDIYLSKLNEYLSNNAKA
soluble fraction (log2): -1.08

HMITLYDLLGVSKTASSQEIKTAFKKKALQYHPDKNDGNPDKEEIFKRINMAYQVLGQPQSRANYDFSITP
soluble fraction (log2): -0.483

HMITNMIIIMKPNASEEAIEKVKHLIESKGLQAHLSKGDEVTIVGVVGDKTRLHDSNIEISEGVDKIVNVT
soluble fraction (log2): 0.497

HMITPAGVPPALLPVFDQFTLPDGTLRRGAVAAALRALYGPDAPQSGKRYQMEYDRVMAWHSQYFTSLH
soluble fraction (log2): -0.759

HMITPKQTAETLGIATSTLRRWASEFEPFLSLRTGVKRTYTTDDITTLKRVKDLFAQGLKTEQVREAL
soluble fraction (log2): -0.287

HMITPNQAAVTLKVSTSTLRRWSSDFEPFLSPRKGVKRLYTIEDIATLKRIQGLYKQGMNTAQVQA
soluble fraction (log2): -2.25

HMITQQEFQQKLEALLSRAEAESFHIKKEEAESFFSGDELTGEQMKLVFDYLLSKKIIVEGYLK
soluble fraction (log2): -0.918

HMITTEEVLNRIRKKVDHPATIRELQKALSIADDDRHRFRRRIRTLVASGALVRIRGNRYGLPSK
soluble fraction (log2): -0.213

HMITTWAGKATTDVYGRVDANPKADAVLVIKTGWTVQVVGSKTAPDGGTWYKLIYNGKTMYANSKFIVK
soluble fraction (log2): -3.65

HMITVEAPMPGKVLSVNVKAGDKVEAGDVLLILEAMKMQNEIMAPEDGTVSDVRVSAGDTVATGDVMVV
soluble fraction (log2): 0.0808

HMIVIMAKESSPAELEGVKNRIESHPGLRPQVFDGVERIVVGVLGSIPPDLKDEIELLPGVIEVVPISK
soluble fraction (log2): -0.177

HMIVVLKHGVTEQQMRNLIAWFKDQGVDVHVSRGIYQTVLGLVGDTSDIDVDLLRMLDIVDAVKRIT
soluble fraction (log2): -2.1

HMIVVMAADSSREDLDLVQGRIEARGLRAQISQGVERIVIGVLGSLPPDLKDEMELLPGVREVLVIS
soluble fraction (log2): -1.57

HMIYGNGVTDLKDLANGATIIIPADDSNETRALFLLQQEGLIKLPDDADAAKGVSTLDIVDGGGWVTSM
soluble fraction (log2): 0.0362

HMIYKLIADRLKNRINSDEFEVGDALPSEKALAGELEVSVMTIRKALTLLESEKLIVKRHGSGSYVARKSN
soluble fraction (log2): -1.77

HMIYRTTSVPIDNISTQKFNLQEGWIEMNKNEVEDFIRQKNLELVVTDSNVMLDKFALNGDPNKFKVFKY
soluble fraction (log2): 0.0778

HMKADTSPEAQKKIIAAFEPYSVNKDQIEKLIQRRIDSITPAQVIRLRKILASLKDGMSSPEDWFE
soluble fraction (log2): -0.195

HMKAERLLALLTILLSGKRVSARWLSEELEVSERTVYRDVEALSEAGFPVYATTGRDGGFSLIDGF
soluble fraction (log2): -2.01

HMKAKPTLLTPYEERLKGWLETDSRRPKRDRRTGLALFAKLQQEGFTGSYTRVTEYIRRWRDSGG
soluble fraction (log2): -2.87

HMKALPSAEDVALARESGRVLSTVLQTRAETQQIDFHDDKGAVRSVTLPTTALRLLLDVLTEIGQGNAV
soluble fraction (log2): -0.106

HMKALRNQDVVVGKPLAMAVYDQHGVLLLGRGHVVISESQRQQLLERGFSIDAEQLGRLRAAIEATQRV
soluble fraction (log2): -1.17

HMKALYHQLVDLLKKRMESGMIPHDKLPSERELTAQYGVSRTTVRLALQELENTGYIYRRHGKGTFVSDI
soluble fraction (log2): -2.85

HMKANIGDQVFTQLKDQIINGEWRPGDRIPSEAQLIQLFGVSRGTVRQAVQKLAGEGLIVTRHGEGSFVQG
soluble fraction (log2): -0.0329

HMKAQLQHIIGSNIKLARNTQGYTQEGLAERAEISVEHLKQVERGKKMLSVESLVNVANALQVSVDSLV
soluble fraction (log2): 0.0141

HMKAQVKSVLDDIPGIGQTRRKALMRYFKSLEKIREASVEELKEADAMNERAAQSVYAFFHK
soluble fraction (log2): -0.775

HMKAQVKSVLDEIPGVGPTRRKALMKHFTSIEEIKQAEFETLLEAEGMNRAAAQSVYDFFHN
soluble fraction (log2): -0.232

HMKDESQLVGAEGKAVTPLRPTGVALIGEKRLDVLTEGEFIPRNSDIIVSRVEGNKIIVKLKN
soluble fraction (log2): 0.00394

HMKDHLRFEILSFAGDLRNGVVKTRQEFETIFAFYDKYEEIITALKVHNGYVDSEFDFIKEKFKELKSK
soluble fraction (log2): -2.78

HMKDLQAISERMEEIISFAKANDNEISLFIVQDIIKNKKTGIDEDLLNMALYQIKEQGIKVLPA
soluble fraction (log2): -0.176

HMKDSIQIPNVVGMTIKDAQSQYGKSFSIIEQNRTESTKPAGTILEQTPAGGDTVSKRDNIIIRVVVSLG
soluble fraction (log2): -1.45

HMKDSKSALQEYALERKMGLPVYEVVDRSGPDHAPQFVIAVSLGEWRLEAKGASKRQAEQQAASLMLEEI
soluble fraction (log2): -0.174

HMKDYTIDDIINSKVEHPLGGYQSRFKVGEYEVSVVGGRQTNHGDFIHTFELAIFDKNNNFLRNLTPVTID
soluble fraction (log2): 0.0559

HMKEATTSPLDGIPGIGSKRKKALLSHFGSARSVARADIPDLMRVDGISRQVAETIYGWFHN
soluble fraction (log2): -0.417

HMKEDFPLLEQLRYTGEGADVTGTAEKMESIQALRSAADSGGFRATLGDIQQIPGGGLRFTLSLRGSR
soluble fraction (log2): -0.0408

HMKEDNPIVLINLQAKEGEWVFKGTGLPYVGKYHQHKNGEYMIGIGVLNLNHELKPDEIIIPNPNK
soluble fraction (log2): -0.362

HMKEEDYEVFMRLINVRGIGPKSALNILGVISGQEMIQAIENDDIKRLKSLPGIGAKTAGQIVLDLKGKFV
soluble fraction (log2): -0.746

HMKEFIPPVLDDVLKFFSGSLLPDWENQGRLFFSHYNSQGWRKGTGVQVTDWDSLANKWILDEKIKRDARS
soluble fraction (log2): -0.489

HMKEGTIPPVVNRTLSDAEFVLKSYGYELGRVSEQHSDMPKDIVIKQSPEAGTVADPGTRVDVVVSIGKA
soluble fraction (log2): 0.485

HMKEHDTLALRLTAILRKLNDGEKLVPRELAEEFNVGIRTIQRDLTERLSFLDLEKTNGAYSLPTRNL
soluble fraction (log2): -0.843

HMKEIIFRGIGEFILDYKSLVIEFLNKNNYANLSMDAPVDEVNKAVANNMLNEDFVTELLLFQRRVE
soluble fraction (log2): -4.14

HMKEILLITGKGLHSGQDDVYKSAQLSKLRYSVPEFIKSNLEISQLILSVETPLQKDGGDGALLIK
soluble fraction (log2): -0.0322

HMKEILVGVEPLSKKQIIIKKGIKGRSDYIIFEKKNYGLPENLKPEEVSIEIALKIIDEKKKRKA
soluble fraction (log2): -1.48

HMKEIPTKKGDMLEIYEANGKYILKYPTFNITMPEVVKEIPKEAVDSYLAGKHDGEELINYANFGFWKS
soluble fraction (log2): -0.0757

HMKEKDAYTSEILDTLKNAKLLVVEGTVYPLLTRLKNDGLLNYRWEESTSGPPRKYYGLTDEG
soluble fraction (log2): -0.704

HMKEKIIKEPYDLFTTDKIGQALEVQALLARQGIKVQRRVDGTKSTLFLENYTQSEKDQALLAVVRSGIV
soluble fraction (log2): -0.719

HMKEKPLWAIRITELREEHYFTQTDVSKALGIAQTTYAGYETGRHEPDFETMIKIADIYKVSLDYLIGR
soluble fraction (log2): -2.03

HMKELFETLPDVLDAKLLASALSISKAGAYQLLNRPDFPTLQVGGWKLVTKQKLALWMEQHTN
soluble fraction (log2): -3.39

HMKELFGQRLREQRLKQNLTLEQLAEKANLSPNYVGMVERGLKEPGLATIVKLLNGLNVSADTLL
soluble fraction (log2): -0.446

HMKELLTKQQREEILETVKTKTPKDFGYTAEHWTTGFLGKWIEEHYEVEYKSKTSLYLVFKKASFTYHKPG
soluble fraction (log2): 0.24

HMKELTARQIEILDFITNYEWRHGYWPSIRNIQVQFSYKSTNAVMGHLRALERKGAIERIPGQARTFRIH
soluble fraction (log2): -3.53

HMKEPFETMPDVMDAKQIAEALQISKAGAYNLLNSPDFPTLRIGGRKLVMKNELVEWLKSHTNRK
soluble fraction (log2): 0.428

HMKEPPTLEEIKNYFASKLSTELESEKFFNYFESNGWLVGGKTPMKNWQSAANNWLINMSKFN
soluble fraction (log2): -0.853

HMKEPQLGPVRKWSDQTGNFGIEAQFVKREGDNILLKRADQRTISIPLEKLSDADQEHLKQEEQKQAME
soluble fraction (log2): -0.333

HMKEQLEAYVNRLFADAALTIRNAEVRQEILQHALDRYDDLIASGKTEQEAYDETVSGIGDVSGLYEHK
soluble fraction (log2): -0.584

HMKETKVIHVHLIFKKTSRFFGSISAIYSEFTAEEIGITEETLRHKGLSDGVSFATKKAIIQQGVLIR
soluble fraction (log2): -2.78

HMKEVDSESAFAERGISEVWIPALQKMGILTLEALDAANPNKVFNDLGGMRKKLKIDAAMPTKDEVTAWIQ
soluble fraction (log2): 0.0576

HMKEVKPSDFFLSKLDEDHNLIEKFNALSSFKQKEFIEYIDSAKQEKTKHDRFEKIKPILLSNIGLNDKYR
soluble fraction (log2): -0.0777

HMKEVVVPDYFLKQLQKNKKAFITFNNFSPSHKREYVEWITEAKTEETKNRRMKSAIEWMSEGKSRNWKYI
soluble fraction (log2): -0.589

HMKFGETLIDLRKRNGLTQEELAAKLYVTRQAVSRWERGEVTPGIDMLKLIANVLNEPVAHLLDW
soluble fraction (log2): -2.14

HMKFNRPMSEILQEWENKLGTTSDAELAGLIGVVTMTINRWRKNETKPDLSALNRYDRIVNLVVNNIKQL
soluble fraction (log2): -2.27

HMKFPPELVEFIEGLSLLKPPLNYATVHRRAEKLAIKKGWASPSYSTVRNIIRKLSPALTTLAHEG
soluble fraction (log2): -2.57

HMKGAADPAIKQKVLDYLDTVEKAKSKEIAKAISEEKSAVDLAVKELAFEDKVEYLYITTTFVALKGKVA
soluble fraction (log2): -1.51

HMKGALQIAIEEGFNWNLDKKYWNIVQSTVIAKRLGLKTTSGLKEAIEGMGGEYKRTKKARGYLVPTFKD
soluble fraction (log2): -3.98

HMKGDYWIIDLDKNYQYAIISEPDRQYLWILSRSPNMDTQTLETLKEKIRSKGFDLTYLKQTL
soluble fraction (log2): -1.53

HMKGHQASTTWISERVKDIIKEDPTLGARKLQKRLEIHYNIELSYFKVWSGKNLQWMIFMVL
soluble fraction (log2): 0.0846

HMKGSYTVKSGDNLWSIARKFYGGSGSTWTKIYSANKSTIESTARRYGRSSSDNGHWIYPGTVLVIP
soluble fraction (log2): -0.924

— the domain aggregation screens of Martell et al. (2025)
